Source: patent US20110190142A1, “DETERMINATION OF RENIN-PRORENIN RECEPTOR ACTIVITY” (Charite- Universitatsmedizin Berlin, priority 2006, published 2011)
Each block holds one molecule with its values, some of them ahead of it.

Assays:
[1] = target: T1, PLZF (promyelocytic zinc finger protein, ZBTB16), endogenous (Homo sapiens, UniProt Q05516 Q05516:1-673); assay: ChIP-qPCR in HEK293; about 6-fold increased recruitment to the RER promoter region around the element after renin vs vehicle; details: tags: none (endogenous, HEK293)
T1 sequence: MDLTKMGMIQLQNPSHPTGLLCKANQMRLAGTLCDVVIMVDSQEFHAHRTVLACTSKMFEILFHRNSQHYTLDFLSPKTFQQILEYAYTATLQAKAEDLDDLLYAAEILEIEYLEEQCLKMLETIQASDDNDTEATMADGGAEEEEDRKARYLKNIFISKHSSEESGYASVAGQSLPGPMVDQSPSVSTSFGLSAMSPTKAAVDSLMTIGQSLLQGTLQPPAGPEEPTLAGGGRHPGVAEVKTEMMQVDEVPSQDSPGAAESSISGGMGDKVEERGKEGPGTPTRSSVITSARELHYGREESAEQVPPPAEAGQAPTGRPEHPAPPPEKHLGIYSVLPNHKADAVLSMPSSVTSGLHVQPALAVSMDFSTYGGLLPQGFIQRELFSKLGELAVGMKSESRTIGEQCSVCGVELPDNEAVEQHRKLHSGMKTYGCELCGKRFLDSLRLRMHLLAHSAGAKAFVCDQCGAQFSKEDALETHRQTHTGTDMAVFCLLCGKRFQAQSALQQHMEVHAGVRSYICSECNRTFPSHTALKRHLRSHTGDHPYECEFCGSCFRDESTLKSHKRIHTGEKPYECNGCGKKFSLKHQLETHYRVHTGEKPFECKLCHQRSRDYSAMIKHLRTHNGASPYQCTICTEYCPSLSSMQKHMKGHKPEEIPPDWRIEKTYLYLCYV

[2] = target: endogenous human RER of HEK293 cells (human) (UniProt O75787); assay: cell-based or functional assay
endogenous human RER of HEK293 cells (human), sequence (O75787 17-350): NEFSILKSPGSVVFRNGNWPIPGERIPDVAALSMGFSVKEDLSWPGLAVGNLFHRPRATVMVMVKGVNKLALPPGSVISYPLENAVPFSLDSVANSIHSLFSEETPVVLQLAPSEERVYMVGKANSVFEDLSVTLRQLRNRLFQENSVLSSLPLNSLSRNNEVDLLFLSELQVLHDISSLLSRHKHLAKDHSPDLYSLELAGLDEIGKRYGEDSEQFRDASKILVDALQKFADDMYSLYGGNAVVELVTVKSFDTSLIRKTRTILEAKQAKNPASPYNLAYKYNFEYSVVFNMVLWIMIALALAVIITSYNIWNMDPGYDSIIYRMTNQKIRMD

[3] = tested on: renin/prorenin receptor (RER); assay: RER mRNA by quantitative real-time PCR after renin/prorenin stimulation of HEK293 cells; type: cell-based, human
Experimental: (§1) HEK293 cells were seeded in 24-well plates and transfected with either 100 ng of pCEP4-PLZF-myc expression vector, 50 ng of indicated pGL3-basic construct and 10 ng of phRL-null plasmid (for luciferase assay), or 100 ng of pCEP4-PLZF-myc alone (for PCR experiments) per well as described above. siRNA transfection, renin stimulation and determination of reporter activity were performed as described above, except for an exceeded renin stimulation period of 3 hours.
(§2) RNA isolation and cDNA synthesis were performed as described above. qPCR was performed applying a SYBR Green I reaction mix and run on a Stratagene Mx3000P (Stratagene, La Jolla, Calif., USA) using the following primers: […]
(§3) Data represents the mean expression level±standard deviation (standardized to 18S rRNA expression) calculated according to the ddCT method of at least three independent measurements. Equality of PCR efficiencies has been verified applying the program LinRegPCR (Ramakers et al. 2003) and ANOVA testing.
(§4) For all cell culture studies immortalized human epithelial kidney cells (HEK293 cells) were used. […] Additional inhibition with 1 μM aliskiren was performed as indicated. 1 hour after pre-treatment with losartan±aliskiren cells were stimulated with either 5 nM renin, 5 nM prorenin, or the respective vehicle. Cells were harvested for mRNA expression analysis or determination of viable cell number and apoptosis after 3 or 24 hours, respectively. These experimental procedures have been described in detail previously (Schefe et al., 2006). All experiments were performed in independent triplicates.

[4] = tested on: renin/prorenin receptor (RER); assay: PI3K-p85α mRNA by quantitative real-time PCR after renin/prorenin stimulation of HEK293 cells; type: cell-based, human
Experimental: as §1, §2, §3, §4

HEK293 cells [5] = assay: Number of viable cells (ATP concentration); type: cell-based, human; details: for increase of viable cell number compared to vehicle: HEK293 cells, 5 nM, 24 hours
Experimental: as §4

HEK293 cells [6] = assay: Caspase 3/7 activity as a measure of apoptosis; type: cell-based, human; details: for reduction of caspase 3/7 activity: HEK293 cells, 5 nM, 24 hours
Experimental: as §4

[7] = tested on: renin/prorenin receptor (RER); assay: RER promoter luciferase reporter assay under renin stimulation; type: cell-based, human; details: PLZF-overexpressing HEK293 cells, renin vs all controls
Experimental: (§5) The indicated cell types were seeded on day 1 in 12-well plates. 100 ng of indicated pGL3-basic constructs (encoding firefly luciferase) and 20 ng of phRL-null plasmid (encoding humanized Renilla luciferase for standardization of promoter activity; Promega) per well were transfected on day 2 at 60-80% confluency using GeneJuice (Merck Biosciences, Bad Soden, Germany) according to the manufacturer's protocol. Cells were harvested 48 hours after transfection using Passive Lysis Buffer (Promega). Reporter activities were measured in a Pharmingen Monolight 3010 luminometer (BD Biosciences, Erembodegem, Belgium) using the Dual-Luciferase Reporter Assay System (Promega). Promoter activity is expressed as relative luciferase activity (RLA) (Funke-Kaiser et al., 2003a). RLA data represent the mean±standard deviation of at least three single, parallel transfection experiments.
as §1

[8] = tested on: renin/prorenin receptor (RER); assay: PI3K-p85α promoter luciferase reporter assay under renin stimulation; type: cell-based, human; details: PLZF-overexpressing HEK293 cells, renin vs control
Experimental: as §5, §1

[9] = tested on: renin/prorenin receptor (RER); assay: PLZF translocation, fractionated extraction of cytosolic and nuclear proteins and Western blot; type: cell-based, human; details: HEK293 cells, c-myc-tagged PLZF, 10 nM renin
Experimental: Cytosolic and membrane proteins were isolated using the ProteoExtract Subcellular Proteome Extraction Kit (Calbiochem, Darmstadt, Germany). A fractionated extraction of cytosolic and nuclear proteins was performed as described previously (Funke-Kaiser et al., 2003a). Protein concentrations were determined using the DC Protein Assay (Bio-Rad, München, Germany). Cytosolic, membrane and nuclear fractions were controlled by Western blot using antibodies against Akt (mouse monoclonal, 5G3; 1:1,000; Cell Signalling, Danvers, Mass., USA), angiotensin AT1 receptor (rabbit polyclonal, sc-579; 1:2,000; Santa Cruz Biotechnology, Heidelberg, Germany) and TBP (rabbit polyclonal, sc-204; 1:1,000; Santa Cruz Biotechnology), respectively.
For PLZF translocation experiments HEK293 cells were seeded on day 1 in 6-well plates. 250 ng of pCEP4-PLZF-myc expression vector per well were transfected on day 2 at 40-60% confluency using GeneJuice (Merck Biosciences, Bad Soden, Germany) according to the manufacturer's protocol. […] Chemoluminescence was detected with ECL (Amersham, München, Germany), and subsequent exposition to Hyperfilm (Amersham).

[10] = HEK293 cells transfected with scrambled control siRNA
[11] = HEK293 cells, 5 nM, 3 hours, 1 μM losartan pre-treatment

B1: RER promoter PLZF element, native (dsDNA)
DNA 1: CTTAACTACAGTTTTCACTGG
DNA 2: CCAGTGAAAACTGTAGTTAAG
- binding signal [1]: 6 fold

- PI3K-p85α mRNA after 3 hours, 5 nM prorenin, HEK293 cells (% of vehicle control) [2]: 176
- PI3K-p85α mRNA, prorenin, HEK293 cells with scrambled control siRNA (% of vehicle control) [2]: 213
- RER mRNA after 3 hours, 5 nM prorenin, HEK293 cells (% of vehicle control) [2]: 63.6
- RER mRNA, prorenin, HEK293 cells with scrambled control siRNA (% of vehicle control) [2]: 59.7
- caspase 3/7 activity after 24 hours, 5 nM prorenin, HEK293 cells [2]: 35.7 % decrease
- caspase 3/7 activity, prorenin, HEK293 cells with scrambled control siRNA [2]: 53.4 % decrease
B2: prorenin (ligand, UniProt P00797 24-406, looked up, species assumed)
pro-form: LPTDTTTFKRIFLKRMPSIRESLKERGVDMARLGPEWSQPMKRLTLGNTTSSVILTNYMDTQYYGEIGIGTPPQTFKVVFDTGSSNVWVPSSKCSRLYTACVYHKLFDASDSSSYKHNGTELTLRYSTGTVSGFLSQDIITVGGITVTQMFGEVTEMPALPFMLAEFDGVVGMGFIEQAIGRVTPIFDNIISQGVLKEDVFSFYYNRDSENSQSLGGQIVLGGSDPQHYEGNFHYINLIKTGVWQIQMKGVSVGSSTLLCEDGCLALVDTGASYISGSTSSIEKLMEALGAKKRLFDYVVKCNEGPTLPDISFHLGGKEYTLTSADYVFQESYSSKKLCTLAIHAMDIPPPTGPTWALGATFIRKFYTEFDRRNNRIGFALAR
modifications: pro-form
- viable cell number after 24 hours, 5 nM prorenin, HEK293 cells [2]: 124 % increase
- viable cell number, prorenin, HEK293 cells with scrambled control siRNA [2]: 87.5 % increase
- RER mRNA, % of vehicle control [3, 10]: 59.7%
- RER mRNA, % of vehicle control [3, 11]: 63.6%
- PI3K-p85α mRNA, % of vehicle control [4, 10]: 212.8%
- PI3K-p85α mRNA, % of vehicle control [4, 11]: 175.8%
- increase of viable cell number (HEK293 cells [5]; [10]): 87.5%
- increase of viable cell number compared to vehicle (HEK293 cells [5]): 123.8%
- attenuation of caspase 3/7 activity (HEK293 cells [6]; [10]): 53.4%
- reduction of caspase 3/7 activity (HEK293 cells [6]): 35.7%

- PI3K-p85α mRNA (real-time PCR), HEK293 cells with PLZF overexpression [2]: 105 % increase
- PI3K-p85α mRNA (real-time PCR), HEK293 cells without PLZF overexpression [2]: 30.2 % increase
- PI3K-p85α mRNA after 3 hours, 5 nM renin, HEK293 cells (% of vehicle control) [2]: 172
- PI3K-p85α promoter activity (luciferase reporter) in PLZF-overexpressing HEK293 cells [2]: 45 % increase
- PLZF recruitment to the RER promoter (ChIP with real-time PCR) in HEK293 cells [2]: 6 fold
- RER mRNA (real-time PCR) in HEK293 cells after renin stimulation combined with PLZF transfection [2]: 45.4 % of control
- RER mRNA (real-time PCR) in HEK293 cells after renin stimulation, without PLZF overexpression [2]: 80.6 % of control
- RER mRNA after 3 hours, 5 nM renin, HEK293 cells (% of vehicle control) [2]: 59.2
- RER promoter activity (luciferase reporter) in PLZF-overexpressing HEK293 cells [2]: 30 % decrease
- caspase 3/7 activity after 24 hours, 5 nM renin, HEK293 cells [2]: 31 % decrease
- decrease in the activity of a wild type RER promoter [7]: about 30%
B3: human recombinant renin (mammalian expression) (ligand, UniProt P00797 67-406, looked up)
chain: LTLGNTTSSVILTNYMDTQYYGEIGIGTPPQTFKVVFDTGSSNVWVPSSKCSRLYTACVYHKLFDASDSSSYKHNGTELTLRYSTGTVSGFLSQDIITVGGITVTQMFGEVTEMPALPFMLAEFDGVVGMGFIEQAIGRVTPIFDNIISQGVLKEDVFSFYYNRDSENSQSLGGQIVLGGSDPQHYEGNFHYINLIKTGVWQIQMKGVSVGSSTLLCEDGCLALVDTGASYISGSTSSIEKLMEALGAKKRLFDYVVKCNEGPTLPDISFHLGGKEYTLTSADYVFQESYSSKKLCTLAIHAMDIPPPTGPTWALGATFIRKFYTEFDRRNNRIGFALAR
- RER mRNA (first column set to 100%) ([3]; HEK293 cells with PLZF overexpression (pCEP4-PLZF) plus renin stimulation): 45.4±4.7%
- RER mRNA (first column set to 100%) ([3]; HEK293 cells without PLZF overexpression, renin stimulation vs vehicle): 80.6±3.3%
- RER mRNA, % of vehicle control [3, 11]: 59.2%
- increase in PI3K-p85α promoter activity [8]: 45%
- increase of PI3K-p85α mRNA relative to vehicle control ([4]; HEK293 cells with PLZF overexpression): 105.2±6.74%
- increase of PI3K-p85α mRNA relative to vehicle control ([4]; HEK293 cells without PLZF overexpression): 30.2±7.9%
- PI3K-p85α mRNA, % of vehicle control [4, 11]: 171.8%
- translocation of PLZF from the cytoplasm to the nucleus [9]: clear increase in nuclear PLZF
- increase of viable cell number compared to vehicle (HEK293 cells [5]): 103.6%
- reduction of caspase 3/7 activity (HEK293 cells [6]): 31%
